Measured values from patent US20230310650A1.

Target: human extracellular signal-regulated kinase 1/2 (Erk) (human) (UniProt P27361)
Test: cell-based or functional assay

UniProt P27361, sequence (P27361 2-379 limits assumed, chain 1 of 2): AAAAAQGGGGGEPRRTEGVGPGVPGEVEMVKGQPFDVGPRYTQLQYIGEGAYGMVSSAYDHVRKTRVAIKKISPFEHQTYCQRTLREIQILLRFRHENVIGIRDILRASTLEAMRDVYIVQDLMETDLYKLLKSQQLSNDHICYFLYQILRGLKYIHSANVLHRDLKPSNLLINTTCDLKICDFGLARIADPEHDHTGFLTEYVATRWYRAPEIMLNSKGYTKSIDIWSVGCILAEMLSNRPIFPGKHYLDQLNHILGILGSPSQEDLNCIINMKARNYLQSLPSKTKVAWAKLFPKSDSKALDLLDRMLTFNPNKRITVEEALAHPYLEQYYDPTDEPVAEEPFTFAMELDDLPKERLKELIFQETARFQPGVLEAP
UniProt P27361, sequence (P28482 2-360 limits assumed, chain 2 of 2, further chain): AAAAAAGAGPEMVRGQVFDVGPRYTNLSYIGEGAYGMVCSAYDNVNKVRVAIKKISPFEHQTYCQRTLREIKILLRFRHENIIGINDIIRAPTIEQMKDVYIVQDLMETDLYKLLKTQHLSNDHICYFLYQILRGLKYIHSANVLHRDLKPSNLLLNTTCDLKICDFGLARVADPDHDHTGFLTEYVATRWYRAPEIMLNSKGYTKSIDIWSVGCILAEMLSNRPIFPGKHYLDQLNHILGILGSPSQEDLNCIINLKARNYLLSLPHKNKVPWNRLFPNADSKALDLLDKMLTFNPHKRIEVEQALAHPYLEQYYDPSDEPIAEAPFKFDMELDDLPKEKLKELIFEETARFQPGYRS

MAPK phosphothreonine lyase OspF of Shigella flexneri, expressed from pGB4 as a fusion to TEM-1 (from UniProt Q8VSP9 1-239)
decrease in p-Erk percentages of live t-Erk positive T cells (flow cytometry) after infection with E. coli TOP10 pGB4: > 60%
